According to PMC8328514, “Homo-oligomerization of the human adenosine A2A receptor is driven by the intrinsically disordered C-terminus” (eLife, 2021):
Positions count from the first letter of the chain named. Numbers in names are those of the source.

B1: human adenosine A2A receptor, full-length wild type (receptor, UniProt P29274 1-412, looked up)
chain: MPIMGSSVYITVELAIAVLAILGNVLVCWAVWLNSNLQNVTNYFVVSLAAADIAVGVLAIPFAITISTGFCAACHGCLFIACFVLVLTQSSIFSLLAIAIDRYIAIRIPLRYNGLVTGTRAKGIIAICWVLSFAIGLTPMLGWNNCGQPKEGKNHSQGCGEGQVACLFEDVVPMNYMVYFNFFACVLVPLLLMLGVYLRIFLAARRQLKQMESQPLPGERARSTLQKEVHAAKSLAIIVGLFALCWLPLHIINCFTFFCPDCSHAPLWLMYLAIVLSHTNSVVNPFIYAYRIREFRQTFRKIIRSHVLRQQEPFKAAGTSARVLAAHGSDGEQVSLRLNGHPPGVWANGSAPHPERRPNGYALGLVSGGSAQESQGNTGLPDVELLSHELKGVCPEPPGLDDPLAQDGAGVS
notes: adenosine A2A receptor, human, full-length wild type; also called A2AR-WT; A2AR-FL-WT
B2: A2AR-Q372ΔC (domain or fragment, human, UniProt P29274 1-372, looked up)
chain: MPIMGSSVYITVELAIAVLAILGNVLVCWAVWLNSNLQNVTNYFVVSLAAADIAVGVLAIPFAITISTGFCAACHGCLFIACFVLVLTQSSIFSLLAIAIDRYIAIRIPLRYNGLVTGTRAKGIIAICWVLSFAIGLTPMLGWNNCGQPKEGKNHSQGCGEGQVACLFEDVVPMNYMVYFNFFACVLVPLLLMLGVYLRIFLAARRQLKQMESQPLPGERARSTLQKEVHAAKSLAIIVGLFALCWLPLHIINCFTFFCPDCSHAPLWLMYLAIVLSHTNSVVNPFIYAYRIREFRQTFRKIIRSHVLRQQEPFKAAGTSARVLAAHGSDGEQVSLRLNGHPPGVWANGSAPHPERRPNGYALGLVSGGSAQ
notes: adenosine A2A receptor, human, C-terminus truncated at site Q372 (lacks residue C394)
B3: A2AR-N359ΔC (protein)
chain: MPIMGSSVYITVELAIAVLAILGNVLVCWAVWLNSNLQNVTNYFVVSLAAADIAVGVLAIPFAITISTGFCAACHGCLFIACFVLVLTQSSIFSLLAIAIDRYIAIRIPLRYNGLVTGTRAKGIIAICWVLSFAIGLTPMLGWNNCGQPKEGKNHSQGCGEGQVACLFEDVVPMNYMVYFNFFACVLVPLLLMLGVYLRIFLAARRQLKQMESQPLPGERARSTLQKEVHAAKSLAIIVGLFALCWLPLHIINCFTFFCPDCSHAPLWLMYLAIVLSHTNSVVNPFIYAYRIREFRQTFRKIIRSHVLRQQEPFKAAGTSARVLAAHGSDGEQVSLRLNGHPPGVWANGSAPHPERRPN
B4: A2AR-N359ΔC with the ERR:AAA mutations (domain or fragment, human, UniProt P29274 1-359, looked up)
chain: B3 chain with E355A, R356A, R357A
notes: adenosine A2A receptor, human, C-terminus truncated at site N359, residues 355ERR357 substituted by 355AAA357; also called A2AR-ERR:AAA variant of A2AR-N359ΔC; N359ΔC ERR:AAA
B5: A2AR-FL-ERR:AAA (receptor, human, UniProt P29274 1-412, looked up)
chain: B1 chain with E355A, R356A, R357A
notes: adenosine A2A receptor, human, full length, residues 355ERR357 substituted by 355AAA357; also called A2AR-ERR:AAA variant of A2AR-FL-WT
B6: A2AR-C394X variant with methionine at 394 (receptor, human, UniProt P29274 1-412, looked up)
chain: B1 chain with C394M
notes: also called A2AR-C394X (methionine)
B7: A2AR-C394S (receptor, human, UniProt P29274 1-412, looked up)
chain: B1 chain with C394S
notes: adenosine A2A receptor, human, with C394S; also called A2AR-C394X variant
B8: A2AR-C394X variant with alanine at 394 (receptor, human, UniProt P29274 1-412, looked up)
chain: B1 chain with C394A
notes: also called A2AR-C394X (alanine)
B9: A2AR-C394X variant with leucine at 394 (receptor, human, UniProt P29274 1-412, looked up)
chain: B1 chain with C394L
notes: also called A2AR-C394X (leucine)
B10: A2AR-C394X variant with valine at 394 (receptor, human, UniProt P29274 1-412, looked up)
chain: B1 chain with C394V
notes: also called A2AR-C394X (valine)
B11: A2AR-G344ΔC (domain or fragment, human, UniProt P29274 1-344, looked up)
chain: MPIMGSSVYITVELAIAVLAILGNVLVCWAVWLNSNLQNVTNYFVVSLAAADIAVGVLAIPFAITISTGFCAACHGCLFIACFVLVLTQSSIFSLLAIAIDRYIAIRIPLRYNGLVTGTRAKGIIAICWVLSFAIGLTPMLGWNNCGQPKEGKNHSQGCGEGQVACLFEDVVPMNYMVYFNFFACVLVPLLLMLGVYLRIFLAARRQLKQMESQPLPGERARSTLQKEVHAAKSLAIIVGLFALCWLPLHIINCFTFFCPDCSHAPLWLMYLAIVLSHTNSVVNPFIYAYRIREFRQTFRKIIRSHVLRQQEPFKAAGTSARVLAAHGSDGEQVSLRLNGHPPG
notes: adenosine A2A receptor, human, C-terminus truncated at site G344
B12: A2AR-G349ΔC (domain or fragment, human, UniProt P29274 1-349, looked up)
chain: MPIMGSSVYITVELAIAVLAILGNVLVCWAVWLNSNLQNVTNYFVVSLAAADIAVGVLAIPFAITISTGFCAACHGCLFIACFVLVLTQSSIFSLLAIAIDRYIAIRIPLRYNGLVTGTRAKGIIAICWVLSFAIGLTPMLGWNNCGQPKEGKNHSQGCGEGQVACLFEDVVPMNYMVYFNFFACVLVPLLLMLGVYLRIFLAARRQLKQMESQPLPGERARSTLQKEVHAAKSLAIIVGLFALCWLPLHIINCFTFFCPDCSHAPLWLMYLAIVLSHTNSVVNPFIYAYRIREFRQTFRKIIRSHVLRQQEPFKAAGTSARVLAAHGSDGEQVSLRLNGHPPGVWANG
notes: adenosine A2A receptor, human, C-terminus truncated at site G349
B13: A2AR-P354ΔC (domain or fragment, human, UniProt P29274 1-354, looked up)
chain: MPIMGSSVYITVELAIAVLAILGNVLVCWAVWLNSNLQNVTNYFVVSLAAADIAVGVLAIPFAITISTGFCAACHGCLFIACFVLVLTQSSIFSLLAIAIDRYIAIRIPLRYNGLVTGTRAKGIIAICWVLSFAIGLTPMLGWNNCGQPKEGKNHSQGCGEGQVACLFEDVVPMNYMVYFNFFACVLVPLLLMLGVYLRIFLAARRQLKQMESQPLPGERARSTLQKEVHAAKSLAIIVGLFALCWLPLHIINCFTFFCPDCSHAPLWLMYLAIVLSHTNSVVNPFIYAYRIREFRQTFRKIIRSHVLRQQEPFKAAGTSARVLAAHGSDGEQVSLRLNGHPPGVWANGSAPHP
notes: adenosine A2A receptor, human, C-terminus truncated at site P354
B14: A2AR-P395ΔC (domain or fragment, human, UniProt P29274 1-395, looked up)
chain: MPIMGSSVYITVELAIAVLAILGNVLVCWAVWLNSNLQNVTNYFVVSLAAADIAVGVLAIPFAITISTGFCAACHGCLFIACFVLVLTQSSIFSLLAIAIDRYIAIRIPLRYNGLVTGTRAKGIIAICWVLSFAIGLTPMLGWNNCGQPKEGKNHSQGCGEGQVACLFEDVVPMNYMVYFNFFACVLVPLLLMLGVYLRIFLAARRQLKQMESQPLPGERARSTLQKEVHAAKSLAIIVGLFALCWLPLHIINCFTFFCPDCSHAPLWLMYLAIVLSHTNSVVNPFIYAYRIREFRQTFRKIIRSHVLRQQEPFKAAGTSARVLAAHGSDGEQVSLRLNGHPPGVWANGSAPHPERRPNGYALGLVSGGSAQESQGNTGLPDVELLSHELKGVCP
notes: adenosine A2A receptor, human, C-terminus truncated at site P395

Target: the molecule itself
Test: SDS-PAGE and western blot densitometry of SEC-separated dimer; SEC-separated dimers incubated without or with 5 mM TCEP, then SDS-PAGE and western blot; dimer band area relative to monomer band area

**Q.** For B1, which “dimer level (relative to monomer) with 5 mM TCEP” value is on record?
**A.** 0.51 arbitrary units

**Q.** And the “dimer level (relative to monomer) without TCEP” value?
**A.** 1.14 arbitrary units

**Q.** B2 was tested. Which “dimer level (relative to monomer) with 5 mM TCEP” value did it give?
**A.** 0.22 arbitrary units

**Q.** And the “dimer level (relative to monomer) without TCEP” value?
**A.** 0.68 arbitrary units

Target: the molecule itself
Test: SEC; consecutive rounds of SEC: a first round separates monomer from dimer/oligomer, a second round is run on the SEC-separated populations; total oligomer level relative to the monomer

**Q.** How did the “total oligomer level (relative to monomer), SEC-separated monomer after redistribution” value turn out when B1 was run?
**A.** 1.6 arbitrary units

**Q.** And the “total oligomer level (relative to monomer), initial sample” value?
**A.** 2.87 arbitrary units

**Q.** With B2 as the protein, how does the “total oligomer level (relative to monomer), SEC-separated monomer after redistribution” value read?
**A.** 1.4 arbitrary units

**Q.** What about the “total oligomer level (relative to monomer), initial sample” value of the same protein?
**A.** 1.49 arbitrary units

target: P29274; test: SEC; Superdex 200 10/300 GL; ligand-active receptor in running buffer 150 mM NaCl, 50 mM sodium phosphate, 10% glycerol, 0.1% DDM, 0.1% CHAPS, 0.02% CHS, pH 8.0; 4°C; HMW oligomer and dimer peak areas (Gaussian fit) relative to the monomer peak

**Q.** With B3 as the protein, how does the “HMW oligomer level (relative to monomer)” value read?
**A.** ctrl: 0.68

**Q.** How did the “HMW oligomer level (relative to monomer)” value turn out when B4 was run?
**A.** ERR:AAA: 0.38

**Q.** What does the source list for B1?
**A.** HMW oligomer + dimer level (relative to monomer): WT: 1.34; HMW oligomer level (relative to monomer): ctrl: 0.88

**Q.** B5 was tested. Which “HMW oligomer level (relative to monomer)” value did it give?
**A.** ERR:AAA: 0.66

Target: the molecule itself
Test: as above

**Q.** For B4, which “dimer level (relative to monomer)” value is on record?
**A.** 0.48 arbitrary units

**Q.** What about the “total oligomer level (relative to monomer)” value of the same protein?
**A.** 0.85 arbitrary units

**Q.** With B1 as the protein, how does the “total oligomer level (relative to monomer)” value read?
**A.** 1.37 arbitrary units

**Q.** Does B6 bind?
**A.** binds

**Q.** Does B7 bind?
**A.** binds

**Q.** Does B8 bind?
**A.** binds

**Q.** Does B9 bind?
**A.** binds

**Q.** Does B10 bind?
**A.** binds

**Q.** With B5 as the protein, how does the “dimer level (relative to monomer)” value read?
**A.** 0.29 arbitrary units

**Q.** What about the “total oligomer level (relative to monomer)” value of the same protein?
**A.** 0.94 arbitrary units

**Q.** Does B11 bind?
**A.** binds

**Q.** Does B12 bind?
**A.** binds

**Q.** Which “dimer level (relative to monomer)” value does the source give for B13 here?
**A.** 0.19 arbitrary units

**Q.** And the “total oligomer level (relative to monomer)” value?
**A.** 0.62 arbitrary units

**Q.** Does B14 bind?
**A.** binds
